The target in this assay is T1, CRBN (Homo sapiens, UniProt Q96SW2).
T1 chain: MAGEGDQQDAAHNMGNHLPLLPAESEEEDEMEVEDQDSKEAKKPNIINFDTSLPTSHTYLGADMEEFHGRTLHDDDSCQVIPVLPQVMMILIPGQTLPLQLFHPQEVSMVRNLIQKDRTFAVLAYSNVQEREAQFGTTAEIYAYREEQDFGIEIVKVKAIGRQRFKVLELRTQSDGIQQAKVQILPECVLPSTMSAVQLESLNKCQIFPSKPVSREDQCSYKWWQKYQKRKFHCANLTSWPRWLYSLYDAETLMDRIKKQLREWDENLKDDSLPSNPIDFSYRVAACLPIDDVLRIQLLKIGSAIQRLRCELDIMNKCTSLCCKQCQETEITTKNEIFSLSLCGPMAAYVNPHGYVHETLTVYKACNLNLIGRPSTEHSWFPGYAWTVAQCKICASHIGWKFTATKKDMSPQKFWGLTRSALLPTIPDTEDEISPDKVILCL
Briefly: TR-FRET.

Here are results for one molecule from paper PMC6326779 (2018).

B1: IKZF1 ZF2-ZF3 143-243(Δ197-238) (protein)
chain: RPFQCNQCGASFTQKGNLLRHIKLHSGEKPFKCHLCNYACRRRDALTGHLRTHSVGKPHKCGYCGRSYKQRSSLEEHKERCHNYLESMGLPGTLYPVIKEE
modifications: pomalidomide
In turn, B1 returned a Ki of 165 nM.
